Test results taken from publication doi:10.1101/2020.07.06.189761.

Key:
[1] = biological target: T1, UM-Pif1 (unmodified Pif1) (Saccharomyces cerevisiae, UniProt P07271 1-859); experiment: BLI
T1 sequence: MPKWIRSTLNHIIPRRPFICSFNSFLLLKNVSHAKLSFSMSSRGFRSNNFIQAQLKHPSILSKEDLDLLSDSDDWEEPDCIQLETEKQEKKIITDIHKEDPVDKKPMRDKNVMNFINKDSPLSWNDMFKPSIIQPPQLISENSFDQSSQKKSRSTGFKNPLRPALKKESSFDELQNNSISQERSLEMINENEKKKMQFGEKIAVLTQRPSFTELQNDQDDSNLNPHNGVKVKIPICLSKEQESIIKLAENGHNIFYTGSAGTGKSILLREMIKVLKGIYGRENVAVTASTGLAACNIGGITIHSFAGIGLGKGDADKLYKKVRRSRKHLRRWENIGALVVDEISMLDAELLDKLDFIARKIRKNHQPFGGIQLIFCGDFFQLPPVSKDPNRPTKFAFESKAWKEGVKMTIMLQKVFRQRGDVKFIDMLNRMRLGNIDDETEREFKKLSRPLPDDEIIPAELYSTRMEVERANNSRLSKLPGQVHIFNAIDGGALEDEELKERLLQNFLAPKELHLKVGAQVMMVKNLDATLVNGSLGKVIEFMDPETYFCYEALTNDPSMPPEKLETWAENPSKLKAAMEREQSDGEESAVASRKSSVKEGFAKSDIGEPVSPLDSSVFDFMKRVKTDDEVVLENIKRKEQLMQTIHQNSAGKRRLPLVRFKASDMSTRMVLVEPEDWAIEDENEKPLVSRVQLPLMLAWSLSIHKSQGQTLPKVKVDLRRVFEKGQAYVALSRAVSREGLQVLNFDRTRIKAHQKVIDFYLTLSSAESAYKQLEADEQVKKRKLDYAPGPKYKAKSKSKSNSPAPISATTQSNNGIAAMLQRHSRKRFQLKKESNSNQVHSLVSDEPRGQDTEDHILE

UM-Pif1ΔN (unmodified) = biological target: T2, UM-Pif1ΔN (unmodified) (Saccharomyces cerevisiae, UniProt P07271 234-859, del1-233); experiment: BLI
T2 sequence: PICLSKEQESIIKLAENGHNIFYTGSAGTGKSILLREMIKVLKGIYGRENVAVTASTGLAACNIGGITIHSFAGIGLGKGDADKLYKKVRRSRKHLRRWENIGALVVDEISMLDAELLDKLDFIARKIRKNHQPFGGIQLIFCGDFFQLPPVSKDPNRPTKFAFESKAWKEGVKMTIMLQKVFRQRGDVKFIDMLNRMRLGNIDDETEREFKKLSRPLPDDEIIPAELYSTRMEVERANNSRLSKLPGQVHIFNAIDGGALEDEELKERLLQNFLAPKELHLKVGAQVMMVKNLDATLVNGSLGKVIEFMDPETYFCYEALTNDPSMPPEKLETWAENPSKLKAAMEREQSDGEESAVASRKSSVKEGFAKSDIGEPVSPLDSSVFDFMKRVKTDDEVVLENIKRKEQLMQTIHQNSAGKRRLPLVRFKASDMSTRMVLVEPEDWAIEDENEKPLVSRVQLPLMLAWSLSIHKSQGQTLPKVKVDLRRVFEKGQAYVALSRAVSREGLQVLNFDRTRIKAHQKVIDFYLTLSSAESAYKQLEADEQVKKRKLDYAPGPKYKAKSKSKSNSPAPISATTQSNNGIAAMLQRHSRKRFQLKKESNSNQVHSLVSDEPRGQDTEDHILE

For TTTTTTTTTTTTTTTTTTTTTTTTTGTGTCACTCACATAGCGTTC (ssDNA) [T1 45-nt ssDNA], the Kd [1] was 19.1 ± 5.1 nM and the Kd (UM-Pif1ΔN (unmodified)) was 14.1 ± 1.5 nM.
